{"source": "patent US20220235138A1", "about": "“CAR-T CELLS TARGETING IL-1RAP AND THEIR USE IN ACUTE MYELOID LEUKEMIA (AML)” (ETABLISSEMENT FRANCAIS DU SANG, priority 2019, published 2022)", "key": {"IL-1RAP [1]": {"system": "IL-1RAP", "sequence (Q9NPH3 21-570)": "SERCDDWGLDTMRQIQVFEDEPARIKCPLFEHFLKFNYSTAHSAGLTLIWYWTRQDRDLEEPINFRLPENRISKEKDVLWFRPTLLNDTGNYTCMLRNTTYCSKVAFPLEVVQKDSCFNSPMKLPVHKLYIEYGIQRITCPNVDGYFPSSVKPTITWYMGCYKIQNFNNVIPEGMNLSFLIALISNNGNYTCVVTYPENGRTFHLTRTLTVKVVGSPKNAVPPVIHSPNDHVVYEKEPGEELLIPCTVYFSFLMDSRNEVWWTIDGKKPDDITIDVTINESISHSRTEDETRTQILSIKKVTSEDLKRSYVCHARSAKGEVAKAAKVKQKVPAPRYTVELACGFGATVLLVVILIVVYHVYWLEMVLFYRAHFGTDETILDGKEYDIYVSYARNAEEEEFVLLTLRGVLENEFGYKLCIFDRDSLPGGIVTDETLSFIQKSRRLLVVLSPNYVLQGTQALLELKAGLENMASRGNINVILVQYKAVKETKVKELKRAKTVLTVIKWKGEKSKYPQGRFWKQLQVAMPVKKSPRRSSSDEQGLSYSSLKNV", "assay": "Hybridoma screening by FACS against IL-1RAP-positive and -negative cell lines", "assay_type": "binding, human", "conditions": "compared among the 5 subclones", "from_the_text": "Briefly, BALB/c mice (5 weeks, Charles River) were immunized either by foot pad (n=3) or intraperitoneally (n=5) with a recombinant fusion protein consisting of the extra cellular part of IL-1RAP (NM_002182.2, NCBI) and the Fc-part of human IgG1 (R&D Systems, Lille, France). Lymph nodes or spleens cells and blood samples were harvested and cells were fused with the mouse myeloma cell line, then screened by FACS analysis Becton Dickinson)(, against IL-1RAP-positive (KU812) and -negative (Raji, KG1) cell lines.\nScreening of hybridoma allowed to select 5 monoclonal antibodies subclones that discriminate IL-1RAP positive (KU812 or KG-1 respectively AML or Phi^+p^210 CML) from negative cell lines (Tom-1, NALM-20, Jurkat or Raji, respectively Phi+^p190 B-ALL, Phi^−B-ALL, T-ALL or Burkitt's lymphoma).\nMolecular characterization was performed by Sanger sequencing of cloned PCR products amplification obtained with degenerated primers specific of the FR1 and constant regions of the heavy and light chains according to the protocol of Wang. Z. et al (J. Immunol. Methods, 2000; 233, pages 167-77). […] The monoclonal antibody subclone (#E3C3) was chosen, since it gave the highest relative fluorescence intensity (RFI) by cytometry."}, "IL-1RAP [2]": {"system": "IL-1RAP", "assay": "Immunostaining of FDA standard frozen normal tissue array", "assay_type": "binding, human", "design": "key to Staining intensity (0 to 3+): negative (0); weak staining (1+); moderate staining (2+); strong staining (3+)", "conditions": "for Staining intensity (0 to 3+): replicates", "from_the_text": "(§1) FIG. 13: (A) Tissue microarray. Representative #A3C3 staining of an US Food and Drug Administration standard frozen tissue array, including 90 tissue cores (30 organs) of 3 individual donors per organ (US Biomax, Rockville, Md., USA). Immunostaining was detected using the UltraView Universal DAB Detection Kit (Ventana, USA). Images were acquired and analyzed with NDP.view 2.0 software. […] (Scale bars, 100 μm.) High IL-1RAP (KU812) or negative (Raji)-expressing cell lines were respectively used as positive or negative controls. (B) IL-1RAP R&D (red) or #A3C3 (blue) staining of HMEC-1 dermal endothelial cell line. Isotype IgG1 (gray) is depicted as overlay. RFI is provided for both staining.\nIn order to study specific or non-target tissue binding, FDA standard frozen tissue arrays, including 90 tissue cores (30 organs) of 3 individual donors per organ (US Biomax, Rockville, United States) were incubated as previously described. Immunostaining was detected using UltraView Universal DAB Detection Kit (Ventana, USA). Images were acquired and analyzed with NDP.view 2 software. High IL-1RAP (KU812) or negative (Raji) expressing cell lines were respectively used as positive or negative controls. The staining intensity was graduated as follows: negative (0), weak staining (1+), moderate staining (2+), or strong staining (3+). […]"}, "[3]": {"system": "HMEC-1 endothelial cell line", "assay": "Flow cytometry staining of HMEC-1 dermal endothelial cell line", "assay_type": "binding, human", "conditions": "microvascular HMEC-1 endothelial cell line", "from_the_text": "as §1\nIn order to predict off-target toxicity, we used the #A3C3 mAb to investigate IL-1RAP expression using a tissue macroarray (TMA) of 30 normal human tissues."}, "[4]": {"system": "healthy hematopoietic cells (HSCs, monocytes)", "assay": "IL-1RAP cell surface staining of healthy donor peripheral blood and bone marrow cells", "assay_type": "binding", "method": "(A) IL-1RAP cell surface expression on peripheral blood (left) or bone marrow (right) cells from healthy donors (n=5). SSC-A/CD45+ allowed discrimination of subpopulations as lymphocytes (SSC-A low), monocytes (CD33+), granulocytes (SSC-A high), or HSCs (CD33−/CD34+). RFI was calculated from isotype staining and provided in each window. (B) Representative (1 of 3) IL-1RAP staining of whole human cord blood cells. IL-1RAP staining is provided for whole CD34+, CD34+/CD38−, and CD34+/CD38+ HSC cord blood subpopulations. (C) IL-1RAP-positive cells among CD34+ cells in cord blood (CB, n=5) or bone marrow (BM) from healthy donors (n=5) compared to CD34+ cells from the BM (n=10) or peripheral blood (PB, n=10) from CML patients. […] Percentages were calculated using absolute cell number determined using Trucount tubes based on 5000 fluorescent-bead cytometry acquisition. (F) Left, Gating strategy and analysis for absolute count of CID AP1903-induced cell death. […] The quantification was performed after acquiring 5000 fluorescent beads. Killing efficiency was normalized to control cells (untreated cells). Cell killing was calculated as follows: % Dead cells=[1−(absolute number of viable cells in AP1903-treated cells/absolute number of viable cells in untreated cells)]×100. (D) Absolute percentage of mortality. 24 h or 48 h C0 or IL-1RAP CAR (gated on CD3+/CD19+) T cell CID exposure. […]"}}, "note": "Several values for one entry are separate records, joined by “and”; a condition that tells them apart may be missing. Identical values can stand only once."}
{"molecule": "#A3C3: mouse anti-hIL-1RAP monoclonal antibody generated by standard hybridoma technique; VH SEQ ID No 2, VL SEQ ID No 4 (antibody, V domains shown, Amino acid sequence of chain H (VH) of murine scFv anti-IL-1RAP; Amino acid sequence of chain K (VL) of murine scFv anti-IL-1RAP) VH: MGWSCIILFLVATATGVNSQVQLQQPGAELMMPGASVKVSCEASGYTFTDSWMHWVKQRPGQGLEWIGAIDPSDSYTTYNQKFTGKATLSVDESSNTAYMQLSSLTSEDSAVYYCARYYSGSNYISPFPYWGQGTLVTVSA VL: MESQIQVFVFVFLWLSGVDGDIVMTQSHKFMSTSVGDRVTITCKASLDVSTAVAWYQQKPGQSPKLLIYSASYRYTGVPDRFTGSGSGTDFTFTISSVQAEDLAVYYCQQHYSPPFTFGSGTNLEIK", "values": [{"measurement": "relative fluorescence intensity (RFI) by cytometry", "setting": "IL-1RAP [1]", "value": "highest"}, {"measurement": "Staining intensity (0 to 3+)", "setting": "IL-1RAP [2]; Adrenal gland", "value": 0}, {"measurement": "Staining intensity (0 to 3+)", "setting": "IL-1RAP [2]; Cerebellum tissue", "value": 0}, {"measurement": "Comments: stained epithelial cells", "setting": "IL-1RAP [2]; Colon", "value": "Epithelial cells (~30%);"}, {"measurement": "Comments: stained inflammatory elements", "setting": "IL-1RAP [2]; Colon", "value": "(100%)"}, {"measurement": "Staining intensity (0 to 3+)", "setting": "IL-1RAP [2]; Colon", "value": "3+"}, {"measurement": "Staining intensity (0 to 3+)", "setting": "IL-1RAP [2]; Esophagus", "value": 0}, {"measurement": "Staining intensity (0 to 3+)", "setting": "IL-1RAP [2]; Heart", "value": 0}, {"measurement": "Staining intensity (0 to 3+)", "setting": "IL-1RAP [2]; Kidney", "value": 0}, {"measurement": "Staining intensity (0 to 3+)", "setting": "IL-1RAP [2]; Liver", "value": 0}, {"measurement": "Comments: stained elements", "setting": "IL-1RAP [2]; Lung", "value": "Few inflammatory elements"}, {"measurement": "Staining intensity (0 to 3+)", "setting": "IL-1RAP [2]; Lung", "value": "2+"}, {"measurement": "Comments: stained endothelial cells", "setting": "IL-1RAP [2]; Lymph node", "value": "~30% of endothelial cells"}, {"measurement": "Staining intensity (0 to 3+)", "setting": "IL-1RAP [2]; Lymph node", "value": "2+ and 1+"}, {"measurement": "Staining intensity (0 to 3+)", "setting": "IL-1RAP [2]; Ovary", "value": 0}, {"measurement": "Staining intensity (0 to 3+)", "setting": "IL-1RAP [2]; Pancreas", "value": "1+"}, {"measurement": "Staining intensity (0 to 3+)", "setting": "IL-1RAP [2]; Peripheral nerve", "value": 0}, {"measurement": "Staining intensity (0 to 3+)", "setting": "IL-1RAP [2]; Pituitary gland", "value": 0}, {"measurement": "Comments: stained cytotrophoblast cells", "setting": "IL-1RAP [2]; Placenta", "value": "Cytotrophoblast cells (~10%)"}, {"measurement": "Staining intensity (0 to 3+)", "setting": "IL-1RAP [2]; Placenta", "value": 0}, {"measurement": "Comments: stained endothelial cells", "setting": "IL-1RAP [2]; Prostate", "value": "~10% of endothelial cells"}, {"measurement": "Staining intensity (0 to 3+)", "setting": "IL-1RAP [2]; Prostate", "value": "1+ (2×) and 0 (4×)"}, {"measurement": "Staining intensity (0 to 3+)", "setting": "IL-1RAP [2]; Salivary gland", "value": 0}, {"measurement": "Comments: stained endothelial cells", "setting": "IL-1RAP [2]; Skeletal muscle 1", "value": "~10% of endothelial cells"}, {"measurement": "Staining intensity (0 to 3+)", "setting": "IL-1RAP [2]; Skeletal muscle, first listing", "value": "1+ and 0 (2×)"}, {"measurement": "Staining intensity (0 to 3+)", "setting": "IL-1RAP [2]; Skeletal muscle, second listing", "value": 0}, {"measurement": "Staining intensity (0 to 3+)", "setting": "IL-1RAP [2]; Skin", "value": 0}, {"measurement": "Comments: stained epithelial cells", "setting": "IL-1RAP [2]; Small intestine", "value": "Epithelial cells (~30%);"}, {"measurement": "Comments: stained inflammatory elements", "setting": "IL-1RAP [2]; Small intestine", "value": "(100%)"}, {"measurement": "Staining intensity (0 to 3+)", "setting": "IL-1RAP [2]; Small intestine", "value": "2+ and 0 and 1+"}, {"measurement": "Staining intensity (0 to 3+)", "setting": "IL-1RAP [2]; Smooth muscle", "value": 0}, {"measurement": "Staining intensity (0 to 3+)", "setting": "IL-1RAP [2]; Spinal cord", "value": 0}, {"measurement": "Comments: stained elements", "setting": "IL-1RAP [2]; Spleen", "value": "Necrotic elements"}, {"measurement": "Staining intensity (0 to 3+)", "setting": "IL-1RAP [2]; Spleen", "value": "3+"}, {"measurement": "Comments: stained epithelial cells", "setting": "IL-1RAP [2]; Stomach 1", "value": "cells <10%"}, {"measurement": "Comments: stained gastric mucosa cells", "setting": "IL-1RAP [2]; Stomach 1", "value": "(~10%); few epithelial"}, {"measurement": "Staining intensity (0 to 3+)", "setting": "IL-1RAP [2]; Stomach", "value": "1+ and 0 (2×)"}, {"measurement": "Staining intensity (0 to 3+)", "setting": "IL-1RAP [2]; Testis", "value": 0}, {"measurement": "Staining intensity (0 to 3+)", "setting": "IL-1RAP [2]; Thyroid gland", "value": 0}, {"measurement": "Staining intensity (0 to 3+)", "setting": "IL-1RAP [2]; Ureter", "value": 0}, {"measurement": "Staining intensity (0 to 3+)", "setting": "IL-1RAP [2]; Uterine cervix", "value": 0}, {"measurement": "recognition of cell surface IL-1RAP on HMEC-1", "setting": "[3]", "value": "not recognized"}, {"measurement": "RFI", "setting": "[4]; HSCs in bone marrow from healthy donors, n=5", "value": "< 1.2"}, {"measurement": "RFI", "setting": "[4]; monocyte subpopulation, weak staining in 2/5 peripheral blood and 3/5 bone marrow from healthy donors", "value": "< 2"}]}
